Laboratory results: patent publication US20240343803A1 (SHANDONG SIMCERE BIOPHARMACEUTICAL, published 2024)

T1: full-length human TIGIT on CHO-K1 cells (CHO-K1 human TIGIT) (human, UniProt Q495A1 22-244)
T1 construct: NCBI XP_024309156.1; entry includes the signal peptide; also called high expression strain 1D2; medium expression strain 2D10
T1 sequence: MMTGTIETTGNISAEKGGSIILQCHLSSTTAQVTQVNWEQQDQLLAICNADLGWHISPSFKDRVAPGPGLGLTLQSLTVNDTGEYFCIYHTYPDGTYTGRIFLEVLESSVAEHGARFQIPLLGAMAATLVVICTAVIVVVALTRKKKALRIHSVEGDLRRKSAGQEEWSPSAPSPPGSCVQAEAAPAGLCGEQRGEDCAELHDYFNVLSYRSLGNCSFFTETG

T2: human TIGIT ECD-his (fusion protein of extracellular domain of human TIGIT and His-tag) (human)
T2 construct: entry includes the signal peptide, limits not readable here
T2 chain: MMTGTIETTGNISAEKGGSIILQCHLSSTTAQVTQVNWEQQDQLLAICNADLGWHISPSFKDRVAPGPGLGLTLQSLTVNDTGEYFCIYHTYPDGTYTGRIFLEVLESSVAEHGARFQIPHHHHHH

T3: human TIGIT ECD-mFc (fusion protein of extracellular domain of human TIGIT and mouse IgG2a Fc fragment) (human)
T3 chain: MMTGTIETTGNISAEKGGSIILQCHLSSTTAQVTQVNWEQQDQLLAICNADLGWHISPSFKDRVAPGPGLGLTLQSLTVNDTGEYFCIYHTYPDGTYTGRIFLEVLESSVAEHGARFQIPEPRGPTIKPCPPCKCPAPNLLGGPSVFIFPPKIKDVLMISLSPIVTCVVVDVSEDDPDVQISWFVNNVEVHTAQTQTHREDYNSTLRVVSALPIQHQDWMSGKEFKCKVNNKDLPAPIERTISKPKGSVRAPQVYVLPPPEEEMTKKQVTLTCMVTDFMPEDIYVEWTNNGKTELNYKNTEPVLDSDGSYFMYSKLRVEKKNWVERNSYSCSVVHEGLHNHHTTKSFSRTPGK


Experiments:
[1] = biological target: T1, full-length human TIGIT on CHO-K1 cells …; assay: FACS, high expression strain
Description: (§1) The collected cells were washed once with PBS (Hyclone, CAT #SH30256), resuspended to 2×10⁵/50 μL with 1% BSA-PBS. The antibodies were diluted to 80 nM with 1% BSA-PBS (diluted by 3-fold serial dilution for 12 concentration points). The 50 μL cells were then mixed with 50 μL diluted antibodies, and then incubated at 4° C. for 60 minutes. […] After washing twice with PBS, the cell samples were resuspended with 1% BSA-PBS, 100 μL/well and then analyzed by flow cytometry (BD, Canto II). […] [0298] (c) The effect of anti-TIGIT chimeric antibodies blocking the interaction between Bio-CD155-His and CHO-K1 human TIGIT high expression cell strains detected by FACS

[2] = biological target: T2, human TIGIT ECD-his (fusion protein of …); assay: BIAcore kinetics
[3] = biological target: T3, human TIGIT ECD-mFc (fusion protein of …); assay: FACS, competition: hTIGIT ECD-mFc to CHO-K1 CD155
Description: The collected CHO-K1 CD155 cells were washed once with PBS (Hyclone, CAT #SH30256) and resuspended to 2×10⁵/40 μL with 1% BSA-PBS. The tested antibodies were diluted to 600 nM with 1% BSA-PBS (diluted by 2.5-fold serial dilution for 12 concentration points). The TIGIT ECD-mFc was diluted with 1% BSA-PBS to 6 μg/mL. The 40 μL cells were then mixed with 40 μL diluted antibodies and 40 μL diluted TIGIT ECD-mFc, and then incubated at 4° C. for 60 minutes. […] The cell samples were washed twice with PBS, resuspended to 100 μL/well with 1% BSA-PBS and then analyzed by flow cytometry (BD, Canto II).

[4] = biological target: T1, full-length human TIGIT on CHO-K1 cells …; assay: FACS, low expression strain
Description: as §1

[5] = biological target: T1, full-length human TIGIT on CHO-K1 cells …; assay: FACS, competition: Bio-CD155-His to CHO-K1 human TIGIT
Description: The collected cells were washed once with PBS (Hyclone, CAT #SH30256), resuspended to 2×10⁵/40 μL with 1% BSA-PBS. The antibodies were diluted to 210 nM with 1% BSA-PBS (diluted by 3-fold serial dilution for 12 concentration points). […] The 40 μL cells were then mixed with 40 μL diluted antibodies and 40 μL diluted Bio-CD155-His, and then incubated at 4° C. for 60 minutes. The cells were washed twice with PBS, resuspended with APC labeled streptavidin (dilution ratio 1:1700, Biolegend, 405243), 100 μL/well, and incubated at 4° C. for 40 minutes. The cell samples were washed twice with PBS, resuspended with 1% BSA-PBS, 100 μL/well and then analyzed by flow cytometry (BD, Canto II). […] [0300] (d) The effect of anti-TIGIT chimeric antibodies blocking the interaction between TIGIT ECD-mFc and CHO-K1 CD155 detected by FACS

[6] = biological target: T4, full-length cynomolgus monkey TIGIT on CHO-K1 cells (CHO-K1 cynomolgus monkey TIGIT) (cynomolgus monkey); assay: FACS
T4 construct: NCBI XP_015300911.1; also called cynomolgus monkey TIGIT cells
T4 sequence (chain, as listed by the source limits assumed): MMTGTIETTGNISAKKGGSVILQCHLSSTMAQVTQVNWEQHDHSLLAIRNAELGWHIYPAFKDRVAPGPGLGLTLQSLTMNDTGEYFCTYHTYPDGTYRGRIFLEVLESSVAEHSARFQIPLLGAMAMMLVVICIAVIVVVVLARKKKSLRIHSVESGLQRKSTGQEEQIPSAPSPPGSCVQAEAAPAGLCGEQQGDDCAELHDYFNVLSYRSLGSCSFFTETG
Description: as §1

[7] = biological target: T3, human TIGIT ECD-mFc (fusion protein of …); assay: ELISA
Description: (§2) After discarding the coating solution, the plate was added with 5% skim milk powder (Sangon Biotech, CAT #A600669-0250)-PBS, 250 μL/well, and incubated at 37° C. for 2-4 hours. […] The enzyme-labeled plate was then washed with 0.05% Tween 20-PBS for 3 times on the Microplate Washer, added with tested antibodies diluted to 13 nM with 1% BSA (diluted by 3-fold serial dilution for 12 concentration points), 50 μL/well, and incubated at 37° C. for 1.5-2 hours. The plate was washed with 0.05% Tween 20-PBS for 3 times on the Microplate Washer, then added with HRP enzyme-labeled antibodies (Merck, CAT #AP113P) diluted with 1% BSA (Sangon Biotech, CAT #A500023-0100)-PBS at a dilution ratio of 1:5000, 50 μL/well, and incubated at 37° C. for 1 hour. After washing 3 times with 0.05% Tween 20-PBS on the Microplate Washer, the plate was added with TMB chromogenic solution (KPL, CAT #52-00-03), 50 μL/well, and incubated at room temperature for 7-10 minutes. 1M HCL, 50 μL/well, was then added into the plate to terminate the reaction, and the OD450 nm was read by a microplate reader (Biotek, Powerwave HT). […] (b) The binding activity of anti-TIGIT chimeric antibodies to CHO-K1 human TIGIT (cells with high, medium and low expression levels) and CHO-KI cynomolgus monkey TIGIT detected by FACS.

[8] = biological target: T5, cynomolgus monkey TIGIT ECD-mFc (extracellular domain of cynomolgus monkey TIGIT and mouse IgG2a Fc fragment) (cynomolgus monkey); assay: ELISA
T5 construct: entry includes the signal peptide, limits not readable here
T5 sequence (chain, as listed by the source limits assumed): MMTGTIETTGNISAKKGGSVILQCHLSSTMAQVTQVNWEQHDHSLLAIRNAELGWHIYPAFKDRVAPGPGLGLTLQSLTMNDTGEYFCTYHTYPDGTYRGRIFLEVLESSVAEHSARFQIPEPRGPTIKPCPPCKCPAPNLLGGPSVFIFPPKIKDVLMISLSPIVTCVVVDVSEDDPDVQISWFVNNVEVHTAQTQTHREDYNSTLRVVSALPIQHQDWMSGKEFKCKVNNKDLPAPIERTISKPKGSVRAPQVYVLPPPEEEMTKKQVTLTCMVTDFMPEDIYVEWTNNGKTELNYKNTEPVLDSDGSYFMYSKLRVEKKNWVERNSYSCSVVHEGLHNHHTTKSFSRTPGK
Description: as §2

[9] = biological target: T1, full-length human TIGIT on CHO-K1 cells …; assay: FACS, medium expression strain
Description: as §1

| Binder | EC50 [1] | Kd [2] | koff [2] | kon [2] | IC50 [3] | EC50 [4] | IC50 [5] | EC50 [6] | EC50 [7] | EC50 [8] | EC50 [9] |
| --- | --- | --- | --- | --- | --- | --- | --- | --- | --- | --- | --- |
| TIGIT-CHI-070 (antibody, V domains shown, human-mouse chimeric antibody) VH: QVQLQQPGTELVKPGASVKLSCRASGYTFTNYYMHWVKQRPGRGLEWIGRIDPDSGGSKYNEKFKSKATLTVDKLSSTAYMQLSSLTSEDSAVYYCAREGHYGFYSDYWGQGTTLTVSS VL: DIQMTQSPASLSASVGETVTITCRVSENIYSYLAWYQQKQGKSPQLLVYNAKTLAEGVPSRFSGSGSGTQFSLKINSLQPEDFGNYYCQHHYGNPLTFGAGTKLDLK | 0.517 nM | 0.3 nM | 0.000456 s⁻¹ | 1.52e+06 M⁻¹ s⁻¹ | 0.582 nM | 0.352 nM | 0.384 nM | 0.0359 nM | 0.0145 nM | 0.0163 nM | 0.394 nM |
| TIGIT-CHI-005 (antibody, V domains shown, human-mouse chimeric antibody) VH: QVQLQQSGAELVRPGTSVKVSCKASGYAFTNYLIEWVKQRPGQGLEWIGVINPGSGGTNYKEKFKGKATLTADKSSSTAYMQLSSLTSEDSAVYFCARGEYFFFDYWGQGTTLTVSS VL: DIVMTQSHKFMSTSVGDRVSITCKASQHVSNGVAWYQHKPGQSPKLLIYSASYRYTGVPDRFTGTGSGTDFTFTISSVQAEDLAVYYCQQHYNTPHTFGGGTKLEIK | 0.342 nM | 0.0536 nM | 0.000192 s⁻¹ | 3.59e+06 M⁻¹ s⁻¹ | 0.363 nM | 0.229 nM | 0.158 nM | 0.0264 nM | 0.0173 nM | 0.017 nM | 0.316 nM |
| TIGIT-CHI-002 (antibody, V domains shown, human-mouse chimeric antibody) VH: EVQLQESGPGLAKPSQTLSLACSVTGYSITSDSWNWIRKFPGNKLEYMGYISYSGNTYYNPSLKSRISITRDTSKNQFYLQLNSVTTEDTATYYCARLDFSNYGGAVDYWGQGTSVTVSS VL: DIVMTQSHTFMSTSVGDRVSITCKASQNVRTAVAWYQQKPGQSPKLMIYSASYRYTGVPDRFTGSGSGTDFTFTISSVQAEDLAVYYCQQYYTTPWTFGGGAKLEIQ | 0.299 nM | 0.0697 nM | 0.000315 s⁻¹ | 4.53e+06 M⁻¹ s⁻¹ | 0.368 nM | 0.218 nM | 0.152 nM | 0.029 nM | 0.0181 nM | 0.0165 nM | 0.29 nM |
| TIGIT-CHI-006 (antibody, V domains shown, human-mouse chimeric antibody) VH: EVQLQESGPGLAKPSQTPSLTCSVTGYSMTSDYWNWIRKFPGNKLEYMGYISYSGRTYYNPSLKSRISITRDTSKNQFYLQLNSVTTEDTATYYCARGDYSNYGGAMYDWGQGTSVTVSS VL: DIVMTQSHKFMSTSVGDRVSITCRASQGVSTTIAWYQQKPGQSPKLLIYSASYRYTGVPDRFTGSGSGTDFTFTISGVQAEDLAVYYCQQYYSSPFTFGGGTKLEIK | 0.502 nM | 0.132 nM | 0.00017 s⁻¹ | 1.29e+06 M⁻¹ s⁻¹ | 0.572 nM | 0.329 nM | 0.246 nM | 0.0731 nM | 0.0167 nM | 0.0389 nM | 0.481 nM |
